Substrate: C=CC(C)(C)c1[nH]c2cc(O)ccc2c1C[C@@H]1NC(=O)[C@@H]2CCCN2C1=O
Assay: Michaelis-Menten kinetics, HPLC product detection
Type: biochemical, Aspergillus sp. MF297-2
Conditions: normal prenylation at C-7 with DMAPP, 5 mM MgCl2, 50 mM Tris-Cl pH 7.5

B1: NotC (Aspergillus sp. MF297-2) (protein)
chain: MAIEEKSTSAEPGPYDALSRFSSLTGEDDRKWWEHTGPVLEKVMRDSGYELQSQYIYLYFVQQHLIPYLGKFPTRGQDDHRWQSNLTPYKVPYELSWNVSHKVVRISWDPVCDASGTENDAFNKKAIHDCTRQLAELDSTVILDRYRLLHKDLVITDEEEQQLLRRDVLPKSGRGQHNLAVDFQEGGITLKVYFYPYMKFLATGTPIEELFFSAIEKLRIADIDEAVGMLKCFLSPKSDDGKPSVDEKVFPSLLACDLCDPSKSRIKYYVIDKWVKWERIANLWTIGGRRLEDPYCAKGLALLKELWDLLAIPEGDRGDIWPNLVLGQPPTHLMTTIANYTLSPASRFPEPQVYLTTFGLNDMAIIDALTAFYERVGFTDMAKSYKKNVQSYYPNLDLNQTNWVHEAVSFSYRNSKPYLSVYYSPF
Km: 2.64 ± 0.33 µM | kcat: 60.5 ± 1.9 min⁻¹

From PMC2941195
